First the molecules themselves.
B1: PRSIM_32: Tn3 PRSIM binding molecule, SEQ ID NO: 6 (protein)
chain: RLDAPSQIEVKDVTDTTALITWWSPRYYYASISGFELTYGIKDVPGDRTTIKLDYASNDYSIGNLKPDTEYEVSLISWNYGDWRYSSSNPAKITFKTGL
modifications: PRSIM_32
B2: PRSIM_47: Tn3 PRSIM binding molecule, SEQ ID NO: 9 (protein)
chain: RLDAPSQIEVKDVTDTTALITWSRPGVSIWYFELTYGIKDVPGDRTTIKLDYRSYYYSIGNLKPDTEYEVSLISGSYGLVGVRASNPAKITFKTGL
modifications: PRSIM_47
B3: PRSIM_36: Tn3 PRSIM binding molecule, SEQ ID NO: 8 (protein)
chain: RLDAPSQIEVKDVTDTTALITWSWPRDDDYDIWYFELTYGIKDVPGDRTTIKLLNYASPYSIGNLKPDTEYEVSLISVVPDTYGRGTSNPAKITFKTGL
modifications: PRSIM_36

One assay has as its target BSA (Bos taurus, UniProt P02769). As to the kind of experiment: Biacore 8K BSA control. Type of assay: binding. Particulars: 10 nM simeprevir present. The arrangement: key: # = no binding; * = minimal non-specific binding. Here is the method: (§1) The HCV NS3/4A PR (S139A), or BSA control, was diluted 1:4 (1.25-20 nM)±10 nM simeprevir in 10 mM Hepes pH 7.4, 150 mM NaCl, 0.05% Surfactant P20, 0.01% DMSO, ensuring constant simeprevir and DMSO concentration. The samples were flowed over the chip at 50 μl/min using single cycle kinetics, with 120 sec association and 600 sec dissociation. The chip surface was regenerated with two 20 sec pulses of 10 mM Glycine-HCl pH 3.0. The final sensorgrams were analysed using the Biacore 8K Evaluation Software and the affinity constant KD was determined using a 1:1 binding model. The same method was used for measuring the affinity of the HCV NS3/4A PR mutants for PRSIM_23 with minor deviations. The mutants were diluted 1:4 (2.5-40 nM)±simeprevir in 10 mM Hepes pH 7.4, 150 mM NaCl, 0.05% Surfactant P20, 0.08% DMSO, ensuring constant simeprevir and DMSO concentration. The samples were flowed over the chip at 50 μl/min using single cycle kinetics, with 180 sec association and 600 sec dissociation.
As to B1, the BSA control entry is reported as “#”.

Consider B2, for which the BSA control entry was “#”.

B3: the BSA control entry was “#”.

The next assay has as its target T1, HCV NS3/4A PR (S139A) (Hepatitis C virus subtype 1a, UniProt A8DG50, A1066T/I1043Q/I1044E/L1039E/L1040E/L1047Q/S1165A, form not given). The experiment in a line: HTRF binding screen. The conditions noted are these: in the presence of simeprevir. Here is the method: scFv and Tn3 PRSIM binding molecules that were selective for the HCV NS3/4A PR (S139A) were identified in homogeneous time-resolved fluorescence (HTRF®) assays run in parallel to measure binding in the presence and absence of simeprevir. HCV NS3/4A PR (S139A), and serial dilutions of purified PRSIM binding molecules, were prepared in assay buffer (PBS containing 0.4 M potassium fluoride and 0.1% BSA). Streptavidin cryptate (Cisbio) was pre-mixed with either anti-FLAG XL665 (to detect the Tn3 molecules) or anti-c-myc XL665 (to detect the scFv molecules) in assay buffer. For each assay 2.5 μl of sample titration was added to 2.5 μl HCV NS3/4A PR (S139A) and 2.5 μl of pre-mixed detection reagents. Either 2.5 μl simeprevir or 2.5 μl of a DMSO blank were also added to each well. Background was defined using wells with zero sample addition. Assay plates were incubated overnight at 4° C., prior to reading the time resolved fluorescence at 620 nm and 665 nm emission wavelengths using a PerkinElmer Envision plate reader. Data was analysed by calculating % Delta F values for each sample. Delta F was determined according to equation 1.
% Delta F=((sample 665 nm/620 nm ratio value)−(background 665 nm/620 nm ratio value)/(background 665 nm/620 nm ratio value))×100 Equation 1
Selective binding molecules are defined as those scFv and Tn3 PRSIM binding molecules that bind to HCV NS3/4A PR (S139A) in complex with simeprevir and no binding to HCV NS3/4A PR (S139A).
Turning to B1, the “HTRF max. signal (% delta F)” value is on record as 1955 % delta F.

B2: the “HTRF max. signal (% delta F)” value amounted to 1367 % delta F.

Turning to B3, the “HTRF max. signal (% delta F)” value is 1440 % delta F.

The next assay deals with luciferase reporter gene in HEK293 cells. The experiment in a line: Transcriptional regulation assay (split transcription factor), luciferase reporter. Type of assay: cell-based, human. Particulars: PRSIM fused to AD; one copy. The text has this:
The iDimerize regulated transcription system (Takara) was used to test the ability of PRSIM-based CIDs to regulate gene expression. […] The DBD and AD are separately fused to the two protein components of a CID such that, only in the presence of the small molecule inducer, the AD is brought into close proximity to the DBD, recruiting the transcription machinery to a promoter harbouring the DBD recognition sites. The iDimerize regulated transcription system (Takara) provides two vectors, pHet-Act1-2 and pZFHD1-Luciferase. The pHet-Act1-2 vector encodes two fusion proteins that represent a positive control: one is a fusion between FRB (T82L mutant; DmrC) and an activation domain (AD) from human p65 (SEQ ID NO: 42); the other is a fusion protein comprised of a DNA binding domain (ZFHD1) (SEQ ID NO: 43) fused to three tandem copies of FKBP12 (DmrA). These sequences are preceded by a CMV promoter and separated by an internal ribosome entry site (IRES). The ZFHD1 vector encodes luciferase preceded by an inducible promoter consisting of 12 copies of the recognition sequence of the ZFHD1 DBD upstream of a minimal IL-2 promoter. Binding of the DBD to its recognition sequence and recruitment of the transcriptional machinery by the AD initiates transcription of the luciferase reporter gene. The DNA sequence encoding HCV NS3/4A PR (S139A) was purchased as a DNA string from GeneArt and cloned into the pHet-Act1-2 vector as either an N-terminal fusion partner to the activation domain (SEQ ID NO: 44) (replacing FRB) or as a C-terminal fusion partner to the DNA binding domain (SEQ ID NO: 45) (replacing FKBP12) with flexible linkers (TGGGGSGGGGS (SEQ ID NO: 185) and SA, respectively) between the fusion partners. Subsequently, sequences encoding one copy of a panel of 12 PRSIM molecules (Table 2) were purchased as DNA strings from GeneArt and were cloned using Gibson assembly into the HCV NS3/4A PR (S139A)-containing pHetAct1-2 constructs described above, as a fusion partner to either the DBD (SEQ ID NOS: 46-56) or AD (SEQ ID NOS: 57-67), respectively. An equivalent construct was generated to replace the three copies of FKBP12 in pHet-Act1-2 with a single copy of FKBP12. The sequence of the constructs encoding both activation domain and DNA-binding domain fusion proteins was confirmed by Sanger sequencing of the entire coding region.
Sequences encoding the three HCV NS3/4A PR (S139A) mutants (Table 6) were purchased as DNA strings from GeneArt and were cloned using Gibson assembly into the pHetAct1-2 HCV NS3/4A PR (S139A)-PRSIM_23 (3 tandem copy) construct described above as a fusion partner to the AD (SEQ ID NOs: 211-216).
All transcriptional regulation assays were performed in adherent HEK293 cells cultured in 384-well plates. Cells enzymatically dissociated from a tissue culture flask were counted and plated at 7.5×10^3 cells/well in a 384-well plate. The plates were incubated overnight at 37° C. with 5% CO2 to allow the cells to adhere. On day 2, the cells were co-transfected with a pHet-Act1-2 plasmid (containing the FRB:FKBP12 control fusion proteins (Clontech) or the HCV NS3/4A PR (S139A):PRSIM fusion proteins) and a pZFHD1 plasmid (encoding either luciferase (Clontech) or NanoLuc-PEST (as described above)) using Lipofectamine LTX (ThermoFisher). On day 3, wells were treated with different concentrations of either A/C heterodimeriser (for the FRB:FKBP12 control), simeprevir or with vehicle control, and 24 hours later luminescence was quantified with an Envision plate reader immediately following addition of SteadyGlo luciferase substrate (Promega) or Nano-Glo Vivazine luciferase substrate (Promega). Alternatively, reverse transfections were carried out on Day 1, addition of dimeriser on Day 2 and luminescence quantified 24 hours later on Day 3.
Luminescence readings were converted into fold-change by dividing the signal in the presence of simeprevir by that in the absence of simeprevir.
As for B1, the Max fold change was found to be 2.2.

B2 yielded a Max fold change of 3.85.

Turning to B3, the Max fold change is reported as 33.74.

The assay is the same for the next values; noted with them: PRSIM fused to AD; one copy; simeprevir dose-response; read-out: EC50.
As to B1, the half-maximal effective concentration (EC50) came to 12.3 nM.

With B2, the concentration giving a half-maximal response (EC50) is 6.15 nM.

Regarding B3, the half-maximal effective concentration (EC50) amounted to 3.54 nM.

The assay is the same for the next values; noted with them: PRSIM fused to DBD; one copy.
B1 returned a Max fold change of 65.77.

Molecule B2 returned a Max fold change of 3.

In turn, B3 had a Max fold change of 73.3.

Staying with this assay, now noted: PRSIM fused to DBD; one copy; simeprevir dose-response; read-out: EC50.
Turning to B1, the 50% effective concentration (EC50) worked out at 29.3 nM.

For the molecule B2, the concentration for a half-maximal effect (EC50) was 8.87 nM.

Turning to B3, the 50% effective concentration (EC50) turned out to be 5.66 nM.

Another assay deals with T1, HCV NS3/4A PR (S139A). As to the kind of experiment: Biacore 8K binding kinetics of PRSIM binding molecules. Particulars: 10 nM simeprevir present. Here is the method: The scFv and Tn3 PRSIM binding molecules were covalently immobilised to a CM5 chip surface using standard amine coupling techniques at a concentration of 1 μg/ml in 10 mM sodium acetate pH 4.5.
as §1
In the case of B1, the Rmax worked out at 19.9 RUs, the ka is 2.51 E+09 M^−1 s^−1 and the kd came out at 40.1 s⁻¹.

In turn, B2 displayed an Rmax of 9 RUs, a ka of 1.32e+10 M⁻¹ s⁻¹ and a kd of 51.2 s⁻¹.

In the case of B3, the Rmax is reported as 214.4 RUs, the ka worked out at 5.15e+06 M⁻¹ s⁻¹ and the kd amounted to 0.0498 s⁻¹.
